Article PMC5766158 (Nucleic Acids Research, 2017)

B1: STN1N-Strep (domain or fragment)
chain: MQPGSSRCEEETPSLLWGLDPVFLAFAKLYIRDILDMKESRQVPGVFLYNGHPIKQVDVLGTVIGVRERDAFYSYGVDDSTGVINCICWKKLNTESVSAAPSAARELSLTSQLKKLQETIEQKTKIEIGDTIRVRGSIRTYREEREIHATTYYKVDDPVWNIQIARMLELPTIYRKVYDQPFHSSALEKE
B2: POLA2(1-334)-FG3 (domain or fragment)
chain: MSASAQQLAEELQIFGLDCEEALIEKLVELCVQYGQNEEGMVGELIAFCTSTHKVGLTSEILNSFEHEFLSKRLSKARHSTCKDSGHAGARDIVSIQELIEVEEEEEILLNSYTTPSKGSQKRAISTPETPLTKRSVSTRSPHQLLSPSSFSPSATPSQKYNSRSNRGEVVTSFGLAQGVSWSGRGGAGNISLKVLGCPEALTGSYKSMFQKLPDIREVLTCKIEELGSELKEHYKIEAFTPLLAPAQEPVTLLGQIGCDSNGKLNNKSVILEGDREHSSGAQIPVDLSELKEYSLFPGQVVIMEGINTTGRKLVATKLYEGVPLPFYQPTEED
B3: full length STN1-Strep (STN1F-Strep) (natural protein)
chain: MQPGSSRCEEETPSLLWGLDPVFLAFAKLYIRDILDMKESRQVPGVFLYNGHPIKQVDVLGTVIGVRERDAFYSYGVDDSTGVINCICWKKLNTESVSAAPSAARELSLTSQLKKLQETIEQKTKIEIGDTIRVRGSIRTYREEREIHATTYYKVDDPVWNIQIARMLELPTIYRKVYDQPFHSSALEKEEALSNPGALDLPSLTSLLSEKAKEFLMENRVQSFYQQELEMVESLLSLANQPVIHSASSDQVNFKKDTTSKAIHSIFKNAIQLLQEKGLVFQKDDGFDNLYYVTREDKDLHRKIHRIIQQDCQKPNHMEKGCHFLHILACARLSIRPGLSEAVLQQVLELLEDQSDIVSTMEHYYTAF

How the values were obtained:
[1] = target: T1, POLA2-FLAG (human, UniProt Q14181 1-598); assay: cell-based or functional assay
T1 sequence: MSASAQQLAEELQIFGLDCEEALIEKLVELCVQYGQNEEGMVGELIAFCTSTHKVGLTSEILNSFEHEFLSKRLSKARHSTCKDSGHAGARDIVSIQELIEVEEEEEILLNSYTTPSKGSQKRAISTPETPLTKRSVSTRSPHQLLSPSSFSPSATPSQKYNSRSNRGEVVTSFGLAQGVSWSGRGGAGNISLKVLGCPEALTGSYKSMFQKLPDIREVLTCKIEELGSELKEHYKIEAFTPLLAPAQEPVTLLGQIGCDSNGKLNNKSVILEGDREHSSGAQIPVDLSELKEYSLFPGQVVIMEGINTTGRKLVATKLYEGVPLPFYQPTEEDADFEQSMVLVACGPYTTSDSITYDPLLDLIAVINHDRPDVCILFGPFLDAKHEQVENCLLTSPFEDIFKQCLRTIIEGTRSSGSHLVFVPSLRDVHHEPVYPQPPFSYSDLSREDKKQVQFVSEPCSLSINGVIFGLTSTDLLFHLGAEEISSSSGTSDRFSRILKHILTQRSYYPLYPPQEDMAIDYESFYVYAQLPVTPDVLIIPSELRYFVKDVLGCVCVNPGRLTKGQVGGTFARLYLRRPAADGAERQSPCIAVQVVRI

[2] = target: T2, POLA2(1-414)-FG3 (human, UniProt Q14181 1-414); assay: pull-down
T2 sequence: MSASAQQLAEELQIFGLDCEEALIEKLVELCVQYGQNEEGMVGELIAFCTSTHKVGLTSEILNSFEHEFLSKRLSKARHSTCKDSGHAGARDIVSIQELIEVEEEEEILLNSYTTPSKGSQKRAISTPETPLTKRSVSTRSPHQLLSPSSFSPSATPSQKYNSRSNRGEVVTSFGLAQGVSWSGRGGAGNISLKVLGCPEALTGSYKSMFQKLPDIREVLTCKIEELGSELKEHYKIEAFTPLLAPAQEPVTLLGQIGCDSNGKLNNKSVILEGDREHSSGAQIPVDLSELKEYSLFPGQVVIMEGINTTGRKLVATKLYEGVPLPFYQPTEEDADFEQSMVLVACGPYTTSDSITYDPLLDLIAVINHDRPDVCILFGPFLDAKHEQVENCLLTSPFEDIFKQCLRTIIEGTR

[3] = target: B1; assay: pull-down
[4] = target: B2; assay: pull-down
[5] = target: B3; assay: pull-down

Binder | binding result [2] | also measured
STN1N-Strep R135T (domain or fragment) MQPGSSRCEEETPSLLWGLDPVFLAFAKLYIRDILDMKESRQVPGVFLYNGHPIKQVDVLGTVIGVRERDAFYSYGVDDSTGVINCICWKKLNTESVSAAPSAARELSLTSQLKKLQETIEQKTKIEIGDTIRVTGSIRTYREEREIHATTYYKVDDPVWNIQIARMLELPTIYRKVYDQPFHSSALEKE |  | PP stimulatory activity against wild-type STN1N (1.5 uM, poly-dT template) [1]: 2 fold
STN1N-Strep D157Y (domain or fragment) MQPGSSRCEEETPSLLWGLDPVFLAFAKLYIRDILDMKESRQVPGVFLYNGHPIKQVDVLGTVIGVRERDAFYSYGVDDSTGVINCICWKKLNTESVSAAPSAARELSLTSQLKKLQETIEQKTKIEIGDTIRVRGSIRTYREEREIHATTYYKVDYPVWNIQIARMLELPTIYRKVYDQPFHSSALEKE | binds | 
STN1N-Strep R135W (domain or fragment) MQPGSSRCEEETPSLLWGLDPVFLAFAKLYIRDILDMKESRQVPGVFLYNGHPIKQVDVLGTVIGVRERDAFYSYGVDDSTGVINCICWKKLNTESVSAAPSAARELSLTSQLKKLQETIEQKTKIEIGDTIRVWGSIRTYREEREIHATTYYKVDDPVWNIQIARMLELPTIYRKVYDQPFHSSALEKE | binds | 
STN1N-Strep OBM-2 (W89A/R139A/Y141A) (domain or fragment) MQPGSSRCEEETPSLLWGLDPVFLAFAKLYIRDILDMKESRQVPGVFLYNGHPIKQVDVLGTVIGVRERDAFYSYGVDDSTGVINCICAKKLNTESVSAAPSAARELSLTSQLKKLQETIEQKTKIEIGDTIRVRGSIATAREEREIHATTYYKVDDPVWNIQIARMLELPTIYRKVYDQPFHSSALEKE | binds | 
POLA2OB-FG3 (domain or fragment) GSYKSMFQKLPDIREVLTCKIEELGSELKEHYKIEAFTPLLAPAQEPVTLLGQIGCDSNGKLNNKSVILEGDREHSSGAQIPVDLSELKEYSLFPGQVVIMEGINTTGRKLVATKLYEGVPLPFYQPTEED |  | binding result [3]: binds
B1 | binds | binding result [4]: binds
B2 |  | binding result [5]: binds
B3 | binds | 
